Assay results reported in US20070269486A1, “Methods and Devices for Reducing Tissue Damage After Ischemic Injury” (priority 2005, published 2007).

Test: retention of insulin bioactivity when delivered in PLGA
Conditions: delivered in poly(lactide-co-glycolide) (PLGA)
Excerpt: Insulin is a hormone which improves glycolic metabolism and ATP production. Insulin also may act as a vasodilator, an anti-inflammatory, and an antiplatelet agent. Thus, insulin acts by several mechanisms to decrease infarct size by reducing inflammation, slowing the rate of ischemic necrosis, decreasing circulating levels of FFA and myocardial FFA uptake, restoring myocardial glycogen stores and improving contractile function. The insulin can be human, non-human, or synthetic and can be complete or fragments. Preferably the insulin is a stable, short acting form which is resistant to radiation. Insulin in its crystalline form may be used for improved resistance to radiation. When the insulin is combined with a polymer an agent may be added to preserve bioactivity. […] For substantially longer administration periods, an antacid or other agent may be used to maintain a required pH for continued bioactivity from a PLGA matrix.
Protein or peptide drugs can be human, non-human, recombinant or synthetic and can be the full length native form or an active fragment thereof. Preferably the insulin is a stable, short acting form which is resistant to radiation. Insulin in its crystalline form may be used for improved resistance to radiation. When the insulin is combined with a polymer, an agent may be added to preserve bioactivity. […]

Q: With insulin as the substance, how does the “period over which bioactivity is retained” value read?
A: Its value is “at least 24 hours”.
